Where no end group is shown, it is not given here.
Target: Rh-(Crk-II)-Fl (mouse, UniProt Q64010 2-304, N-alpha-tetramethylrhodamine (Rh) on the N-terminal KRG peptide); Dapa(Fl) = diaminopropionic acid-fluorescein in the C-terminal peptide; K-epsilon-(Biotin) and C-terminal amide (present in the …)
Assay: cell-based or functional assay

Chain of Rh-(Crk-II)-Fl (Q64010 other isoform, or with tags, fused parts or gaps limits assumed): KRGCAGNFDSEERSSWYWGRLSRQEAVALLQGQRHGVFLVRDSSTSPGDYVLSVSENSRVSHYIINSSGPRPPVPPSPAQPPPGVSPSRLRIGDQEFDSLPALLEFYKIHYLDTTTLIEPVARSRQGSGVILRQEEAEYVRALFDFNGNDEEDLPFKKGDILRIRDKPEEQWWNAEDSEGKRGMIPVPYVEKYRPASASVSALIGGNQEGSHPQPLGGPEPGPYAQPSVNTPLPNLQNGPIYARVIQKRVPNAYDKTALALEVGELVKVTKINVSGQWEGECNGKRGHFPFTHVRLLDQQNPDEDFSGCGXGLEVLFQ

With PPPALPPKRRR-NH2 [PPPALPPKRRR-NH2, high affinity ligand for the N-SH3 domain of Crk] the “reduction in the change in FRET after 60 minutes reaction with full length c-Abl, relative to the positive control” value was 50%.

From patent US20060040319A1 (published 2006)
